This is an account of results in publication PMC11032447 (2024).

The chains are these.
B1: mouse secretagogin [mouse] / helix-b of the Habc domain of mouse syntaxin-4 [mouse] (parent complex)
chain 1: MDNARRKTPARLDAACFWQIWQRFDKEEKGYIRETELDAFFDHLLAKSGTEDTLMEENVQKVKEQLMTSHNVSKEGRILMKELASMFLSEDENFLLFFRLETPLDNSVEFMQIWRKYDADSSGFISAAELCNFLRDLFLHHKKNISEAELEEYTSTMMKIFDKNKDGRLDLNDLARILALQENFLLQFKMDASSTEERKRDFEKIFAHYDVSKTGALEGPEVDGFVKDMMELVQPSISGVDLDKFREILLRHCDVNKDGKIQKSELALCLGLKINP
chain 2: TPLPEESMKQGLQNLREEIKQLGREVRAQLKAIEPQKE

Variants of B1 are the subject of the experiment. The experiment in a line: ITC.
Take chain 1 MDNARRKTPARLDAACFWQIWQRFDKEEKGYIRETELDAFFDHLLAKSGTEDTLMEENVQKVKEQLMTSHNVSKEGRILMKELASMFLSEDENFLLFFRLETPLDNSVEFMQIWRKYDADSSGFISAAELCNFLRDLFLHHKKNISEAELEEYTSTMMKIFDKNKDGRLDLNDLARILALQENFLLQFKMDASSTEERKRDFEKIFAHYDVSKTGALEGPEVDGFVKDMMELVQPSISGVDLDKFREILLRHCDVNKDGKIQKSELALCAGLKINP [chain 1 L270A]: the Kd worked out at 16.2 µM.
